Results as given in IntAct's records for PubMed 12117771.

B1: Cadherin-related family member 2 (Homo sapiens), Q9BYE9 (parent)
chain: MAQLWLSCFLLPALVVSVAANVAPKFLANMTSVILPEDLPVGAQAFWLVAEDQDNDPLTYGMSGPNAYFFAVTPKTGEVKLASALDYETLYTFKVTISVSDPYIQVQREMLVIVEDRNDNAPVFQNTAFSTSINETLPVGSVVFSVLAVDKDMGSAGMVVYSIEKVIPSTGDSEHLFRILANGSIVLNGSLSYNNKSAFYQLELKACDLGGMYHNTFTIQCSLPVFLSISVVDQPDLDPQFVREFYSASVAEDAAKGTSVLTVEAVDGDKGINDPVIYSISYSTRPGWFDIGADGVIRVNGSLDREQLLEADEEVQLQVTATETHLNIYGQEAKVSIWVTVRVMDVNDHKPEFYNCSLPACTFTPEEAQVNFTGYVDEHASPRIPIDDLTMVVYDPDKGSNGTFLLSLGGPDAEAFSVSPERAVGSASVQVLVRVSALVDYERQTAMAVQVVATDSVSQNFSVAMVTIHLRDINDHRPTFPQSLYVLTVPEHSATGSVVTDSIHATDPDTGAWGQITYSLLPGNGADLFQVDPVSGTVTVRNGELLDRESQAVYYLTLQATDGGNLSSSTTLQIHLLDINDNAPVVSGSYNIFVQEEEGNVSVTIQAHDNDEPGTNNSRLLFNLLPGPYSHNFSLDPDTGLLRNLGPLDREAIDPALEGRIVLTVLVSDCGEPVLGTKVNVTITVEDINDNLPIFNQSSYNFTVKEEDPGVLVGVVKAWDADQTEANNRISFSLSGSGANYFMIRGLVLGAGWAEGYLRLPPDVSLDYETQPVFNLTVSAENPDPQGGETIVDVCVNVKDVNDNPPTLDVASLRGIRVAENGSQHGQVAVVVASDVDTSAQLEIQLVNILCTKAGVDVGSLCWGWFSVAANGSVYINQSKAIDYEACDLVTLVVRACDLATDPGFQAYSNNGSLLITIEDVNDNAPYFLPENKTFVIIPELVLPNREVASVRARDDDSGNNGVILFSILRVDFISKDGATIPFQGVFSIFTSSEADVFAGSIQPVTSLDSTLQGTYQVTVQARDRPSLGPFLEATTTLNLFTVDQSYRSRLQFSTPKEEVGANRQAINAALTQATRTTVYIVDIQDIDSAARARPHSYLDAYFVFPNGSALTLDELSVMIRNDQDSLTQLLQLGLVVLGSQESQESDLSKQLISVIIGLGVALLLVLVIMTMAFVCVRKSYNRKLQAMKAAKEARKTAAGVMPSAPAIPGTNMYNTERANPMLNLPNKDLGLEYLSPSNDLDSVSVNSLDDNSVDVDKNSQEIKEHRPPHTPPEPDPEPLSVVLLGRQAGASGQLEGPSYTNAGLDTTDL

Variants of: B1
Conditions: with mast2_human MAST2, Q6P0Q8
mast2_human MAST2, Q6P0Q8, sequence (Q6P0Q8 whole entry): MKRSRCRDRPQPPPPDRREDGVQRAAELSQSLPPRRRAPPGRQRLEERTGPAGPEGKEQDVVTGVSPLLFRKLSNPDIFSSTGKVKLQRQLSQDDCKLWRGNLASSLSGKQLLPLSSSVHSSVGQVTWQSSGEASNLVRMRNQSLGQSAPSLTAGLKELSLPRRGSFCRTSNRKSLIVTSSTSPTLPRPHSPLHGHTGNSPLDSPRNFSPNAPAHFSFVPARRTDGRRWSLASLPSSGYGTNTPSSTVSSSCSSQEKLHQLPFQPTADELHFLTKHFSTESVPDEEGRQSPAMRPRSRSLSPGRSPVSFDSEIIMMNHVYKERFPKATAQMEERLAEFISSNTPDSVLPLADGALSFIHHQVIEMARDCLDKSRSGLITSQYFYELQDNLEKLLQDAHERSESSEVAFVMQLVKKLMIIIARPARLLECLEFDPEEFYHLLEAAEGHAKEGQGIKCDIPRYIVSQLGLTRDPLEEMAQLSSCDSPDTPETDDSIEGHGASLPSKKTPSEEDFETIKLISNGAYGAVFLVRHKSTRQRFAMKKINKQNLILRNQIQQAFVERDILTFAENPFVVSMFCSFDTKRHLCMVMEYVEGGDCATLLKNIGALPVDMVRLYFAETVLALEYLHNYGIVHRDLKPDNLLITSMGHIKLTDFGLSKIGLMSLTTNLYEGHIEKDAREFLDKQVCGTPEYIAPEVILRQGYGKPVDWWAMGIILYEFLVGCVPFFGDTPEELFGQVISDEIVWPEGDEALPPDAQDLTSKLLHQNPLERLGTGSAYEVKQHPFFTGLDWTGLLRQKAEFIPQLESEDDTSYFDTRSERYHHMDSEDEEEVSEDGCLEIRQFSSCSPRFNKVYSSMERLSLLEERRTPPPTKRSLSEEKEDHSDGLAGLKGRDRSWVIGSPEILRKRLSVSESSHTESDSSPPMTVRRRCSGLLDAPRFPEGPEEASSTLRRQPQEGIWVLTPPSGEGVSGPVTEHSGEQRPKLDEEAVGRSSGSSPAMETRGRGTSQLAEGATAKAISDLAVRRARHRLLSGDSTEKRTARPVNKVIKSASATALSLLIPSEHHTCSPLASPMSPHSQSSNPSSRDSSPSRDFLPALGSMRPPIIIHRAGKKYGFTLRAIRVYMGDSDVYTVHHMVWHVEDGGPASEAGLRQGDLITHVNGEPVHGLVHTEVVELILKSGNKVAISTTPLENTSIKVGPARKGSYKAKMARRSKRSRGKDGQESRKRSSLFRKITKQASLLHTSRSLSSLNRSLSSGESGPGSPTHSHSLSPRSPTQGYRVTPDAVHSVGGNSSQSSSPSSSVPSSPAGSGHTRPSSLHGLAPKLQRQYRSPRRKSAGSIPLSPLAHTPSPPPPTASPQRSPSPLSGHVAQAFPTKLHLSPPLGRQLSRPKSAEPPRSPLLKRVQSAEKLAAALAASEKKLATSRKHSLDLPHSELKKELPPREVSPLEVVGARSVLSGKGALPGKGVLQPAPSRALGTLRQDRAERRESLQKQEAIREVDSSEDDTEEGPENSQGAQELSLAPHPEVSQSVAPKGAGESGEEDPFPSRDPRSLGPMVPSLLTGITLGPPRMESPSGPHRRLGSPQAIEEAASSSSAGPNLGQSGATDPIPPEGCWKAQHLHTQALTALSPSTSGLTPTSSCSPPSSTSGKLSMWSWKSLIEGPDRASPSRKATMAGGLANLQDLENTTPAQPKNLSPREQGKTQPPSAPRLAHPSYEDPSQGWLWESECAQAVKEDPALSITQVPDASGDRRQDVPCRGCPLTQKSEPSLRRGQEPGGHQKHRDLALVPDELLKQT
With L1310R the “effect of a mutation on the interaction” value was “decreasing interaction”.
